Measurements: patent US20200131227A1, “POLYPEPTIDE WITH TUMOUR BINDING ACTIVITY” (RUPRECHT-KARLS-UNIVERSITÄT HEIDELBERG, priority 2017, published 2020)
“Also recorded” adds a separate entry of the source. Where a SMILES comes first, the peptide text is derived from it. Bridges are numbered along the chain shown (N, C = ends). Where no end group is shown, it is not given here.

What was measured:
ITGαvβ3 = ITGαvβ3 (Homo sapiens, UniProt P05106+P06756); assay: Surface plasmon resonance assay (SPR), ITGαvβ3; format: binding; details: SPR
Chain of ITGαvβ3 (P06756 31-992 limits assumed): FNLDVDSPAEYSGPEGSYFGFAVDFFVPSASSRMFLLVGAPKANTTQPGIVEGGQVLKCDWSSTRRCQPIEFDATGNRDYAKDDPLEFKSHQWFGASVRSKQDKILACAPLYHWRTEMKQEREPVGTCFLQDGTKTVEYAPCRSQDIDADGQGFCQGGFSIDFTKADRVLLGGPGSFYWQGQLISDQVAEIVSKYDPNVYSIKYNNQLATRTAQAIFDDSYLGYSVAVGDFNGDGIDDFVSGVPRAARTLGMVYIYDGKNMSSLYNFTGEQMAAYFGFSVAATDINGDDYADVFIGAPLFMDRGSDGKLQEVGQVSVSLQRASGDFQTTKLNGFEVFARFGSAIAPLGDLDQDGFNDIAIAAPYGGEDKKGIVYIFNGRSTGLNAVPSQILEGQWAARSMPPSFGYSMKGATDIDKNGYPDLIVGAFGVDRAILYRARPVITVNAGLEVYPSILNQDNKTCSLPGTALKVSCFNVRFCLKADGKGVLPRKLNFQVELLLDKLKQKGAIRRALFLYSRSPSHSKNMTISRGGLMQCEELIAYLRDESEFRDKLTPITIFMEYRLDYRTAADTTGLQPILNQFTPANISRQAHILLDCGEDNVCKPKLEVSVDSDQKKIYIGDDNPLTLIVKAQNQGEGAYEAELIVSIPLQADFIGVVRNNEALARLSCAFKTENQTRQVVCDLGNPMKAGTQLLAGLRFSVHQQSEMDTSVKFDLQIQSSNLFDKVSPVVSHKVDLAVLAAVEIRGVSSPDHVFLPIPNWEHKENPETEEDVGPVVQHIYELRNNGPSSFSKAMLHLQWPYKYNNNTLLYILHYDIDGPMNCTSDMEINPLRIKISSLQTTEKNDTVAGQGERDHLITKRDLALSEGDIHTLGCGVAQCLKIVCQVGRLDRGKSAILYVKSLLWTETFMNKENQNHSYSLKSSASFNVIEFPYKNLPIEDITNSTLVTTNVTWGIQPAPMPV
Chain of ITGαvβ3 (P05106 27-718 limits assumed): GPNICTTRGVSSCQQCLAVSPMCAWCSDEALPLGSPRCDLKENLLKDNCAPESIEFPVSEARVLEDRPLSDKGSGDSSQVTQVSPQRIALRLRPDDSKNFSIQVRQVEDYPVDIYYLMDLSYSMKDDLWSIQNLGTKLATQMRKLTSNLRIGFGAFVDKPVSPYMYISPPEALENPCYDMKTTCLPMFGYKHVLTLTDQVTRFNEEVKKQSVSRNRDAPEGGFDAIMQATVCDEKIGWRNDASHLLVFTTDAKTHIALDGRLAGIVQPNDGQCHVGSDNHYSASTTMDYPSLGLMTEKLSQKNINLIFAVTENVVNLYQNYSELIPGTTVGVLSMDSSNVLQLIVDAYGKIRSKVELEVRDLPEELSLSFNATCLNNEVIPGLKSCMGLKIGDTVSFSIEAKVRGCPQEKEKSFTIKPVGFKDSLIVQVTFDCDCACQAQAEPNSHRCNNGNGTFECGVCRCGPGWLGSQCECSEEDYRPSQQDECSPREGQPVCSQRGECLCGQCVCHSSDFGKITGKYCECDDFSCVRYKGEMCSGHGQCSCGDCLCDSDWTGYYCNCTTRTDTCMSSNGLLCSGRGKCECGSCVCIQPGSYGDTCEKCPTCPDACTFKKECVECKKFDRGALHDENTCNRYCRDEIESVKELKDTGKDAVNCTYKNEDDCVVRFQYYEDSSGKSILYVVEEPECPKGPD
Protocol: (§1) Assessment of the binding affinity was performed on a BiaCore X100 (GE Healthcare). To avoid denaturation of the heterodimer during amide activation ITGαvβ6 and ITGαvβ3, respectively, were used as analytes and SFITGv6 was immobilized at its N-terminus on a C1 sensor Chip (BR-1005-35, GE Healthcare) using a manual amine coupling protocol. Briefly, after activation of the sensor chip surface with a solution of EDC 0.4 M/NHS 0.1 M for 5 min a 100 μM peptide dissolved in HBS-EP running buffer (0.1 M HEPES, 30 mM EDTA, 1.5 M NaCl, 0.5% surfactant P20, pH 7.2) was immobilized with a contact time of 30 sec until a loading level of 18 response units (RU) was obtained. […] The SPR-sensogram data were evaluated with the BiaCore evaluation software. The dissociation constant (KD) was determined by a 1:1 Langmuir model fit of the SPR-sensograms.
as §1, with “SFLAP3” for “peptide”, “to obtain” for “until”, “12” for “18”, “(RU).” for “(RU) was obtained.”, “SPR sensogram” for “SPR-sensogram”, “SPR sensograms.” for “SPR-sensograms.”

HNO399 xenografts = assay: Biodistribution, HNO399 xenografts; format: in vivo, mice
[1] = system: HNSCC tumor sections (HNO97 xenograft, HNO444, HNO399, HNO210); assay: Histochemical peptide staining of HNSCC tumor cryosections; design: species or system human; details: biotinylated PEG(12)-peptide, 10^-5 M
Protocol: Staining with the biotinylated PEG(12)-SFITGv6 peptide was performed on acetone-fixed cryosections (5 μm) of tumor tissues after blocking of unspecific binding using the Avidin/Biotin Blocking Kit (SP-2001, Vector Laboratories). A stock solution of the lyophilized peptide was prepared by dilution in 5% aqueous DMSO. Slices were incubated overnight at 4° C. with 10^-5 M peptide concentration in antibody diluent (DAKO). Detection of bound peptide was carried out with the Vectastain Elite ABC Kit (PK-6100, Vector Laboratories) according to manufacturer's protocol. Peptide specificity was ensured by a scrambled (GRD) PEG(12)-SFITGv6 derivate, the somatostatin receptor ligand DOTATOC and negative controls (without peptide or primary antibody) Staining results were assessed by bright field microscopy (BX50) with the SC30 camera and the cell Sense software (all Olympus).
Immunohistochemical stainings were performed by use of the biotinylated PEG(12)-labled peptides (SFITGv6, SFLAP3) on 5 μm acetone-fixed tumor tissue cryosections. To prevent background staining we initially applied the Avidin/Biotin Blocking Kit (SP-2001, Vector Laboratories). The lyophilized peptides were diluted in 5% aqueous DMSO preparing a 1 mM Stock solution. The HNSCC cryosections were incubated with 10^−5 M peptide concentration in antibody diluent (DAKO) at 4° C. overnight. To detect bound peptide the Vectastain Elite ABC Kit (PK-6100, Vector Laboratories) was applied according to manufacturer's protocol. Peptide binding specificity was ensured by use of a peptide derivate (scrambled control) and negative controls (without peptide). Due to instability of the peptide binding staining results were assessed on the same day by bright field microscopy (BX50) with the SC30 camera and the cell Sense software (all Olympus).

HNO223 xenografts = assay: Biodistribution, HNO223 xenografts; format: in vivo, mice
[2] = Serum stability assay (radio-HPLC); format: in vitro ADME, human; details: radio-HPLC, 37° C., up to 24 hours
Protocol: Five MBq of the purified ^131I-radiolabeled peptide was incubated in 300 μL human serum at 37° C. After different time intervals (15 min to 24 hours) 20 μL serum was precipitated with 40 μL acetonitrile. The stability of the labeled peptide in the supernatant was monitored by radio-HPLC at selected time points using a chromolith performance RP18ec column (3 mm×100 mm) equipped with a gamma detector (Packard COBRA™ Auto-Gamma, GMI). Separation condition was a gradient of 0% to 60% aqueous acetonitrile supplemented with 0.1% TFA over 10 min with a flow rate of 2 mL/min.

[3] = target: integrin αvβ6 (ITGαvβ6) as expressed on human carcinoma cell lines and tumor tissue sections (human) (UniProt P06756); assay: peptide competing with 125I-SFITGv6 on HNO97 cells, 60 min
Chain of integrin αvβ6 (ITGαvβ6) as expressed on human carcinoma cell lines and tumor tissue sections (human) (P06756 31-1048, chain 1 of 2): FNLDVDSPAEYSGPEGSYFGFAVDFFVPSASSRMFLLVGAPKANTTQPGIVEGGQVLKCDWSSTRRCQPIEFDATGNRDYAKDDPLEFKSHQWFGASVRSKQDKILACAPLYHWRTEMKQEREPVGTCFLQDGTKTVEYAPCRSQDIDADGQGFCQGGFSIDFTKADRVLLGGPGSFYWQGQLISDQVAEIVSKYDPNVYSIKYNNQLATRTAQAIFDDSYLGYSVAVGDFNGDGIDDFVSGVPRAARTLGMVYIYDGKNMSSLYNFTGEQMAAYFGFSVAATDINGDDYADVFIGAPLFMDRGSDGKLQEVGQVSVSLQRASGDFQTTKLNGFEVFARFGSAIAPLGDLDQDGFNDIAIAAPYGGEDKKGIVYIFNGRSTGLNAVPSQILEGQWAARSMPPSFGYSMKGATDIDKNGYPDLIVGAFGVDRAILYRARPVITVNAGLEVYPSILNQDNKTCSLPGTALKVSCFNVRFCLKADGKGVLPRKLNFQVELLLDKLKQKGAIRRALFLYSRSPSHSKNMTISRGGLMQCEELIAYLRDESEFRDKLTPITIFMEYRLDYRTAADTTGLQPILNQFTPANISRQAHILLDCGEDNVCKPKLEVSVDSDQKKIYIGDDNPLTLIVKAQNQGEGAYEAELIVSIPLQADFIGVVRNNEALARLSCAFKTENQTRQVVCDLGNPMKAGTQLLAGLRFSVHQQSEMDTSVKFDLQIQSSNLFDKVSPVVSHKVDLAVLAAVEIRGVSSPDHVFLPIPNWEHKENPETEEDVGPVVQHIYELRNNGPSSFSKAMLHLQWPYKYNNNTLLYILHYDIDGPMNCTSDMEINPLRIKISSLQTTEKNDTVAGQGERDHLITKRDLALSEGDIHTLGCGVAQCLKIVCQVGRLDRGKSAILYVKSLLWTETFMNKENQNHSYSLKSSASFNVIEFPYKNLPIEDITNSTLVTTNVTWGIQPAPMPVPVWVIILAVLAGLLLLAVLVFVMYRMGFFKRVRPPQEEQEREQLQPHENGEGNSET
Chain of integrin αvβ6 (ITGαvβ6) as expressed on human carcinoma cell lines and tumor tissue sections (human) (P18564 22-788, chain 2 of 2, further chain): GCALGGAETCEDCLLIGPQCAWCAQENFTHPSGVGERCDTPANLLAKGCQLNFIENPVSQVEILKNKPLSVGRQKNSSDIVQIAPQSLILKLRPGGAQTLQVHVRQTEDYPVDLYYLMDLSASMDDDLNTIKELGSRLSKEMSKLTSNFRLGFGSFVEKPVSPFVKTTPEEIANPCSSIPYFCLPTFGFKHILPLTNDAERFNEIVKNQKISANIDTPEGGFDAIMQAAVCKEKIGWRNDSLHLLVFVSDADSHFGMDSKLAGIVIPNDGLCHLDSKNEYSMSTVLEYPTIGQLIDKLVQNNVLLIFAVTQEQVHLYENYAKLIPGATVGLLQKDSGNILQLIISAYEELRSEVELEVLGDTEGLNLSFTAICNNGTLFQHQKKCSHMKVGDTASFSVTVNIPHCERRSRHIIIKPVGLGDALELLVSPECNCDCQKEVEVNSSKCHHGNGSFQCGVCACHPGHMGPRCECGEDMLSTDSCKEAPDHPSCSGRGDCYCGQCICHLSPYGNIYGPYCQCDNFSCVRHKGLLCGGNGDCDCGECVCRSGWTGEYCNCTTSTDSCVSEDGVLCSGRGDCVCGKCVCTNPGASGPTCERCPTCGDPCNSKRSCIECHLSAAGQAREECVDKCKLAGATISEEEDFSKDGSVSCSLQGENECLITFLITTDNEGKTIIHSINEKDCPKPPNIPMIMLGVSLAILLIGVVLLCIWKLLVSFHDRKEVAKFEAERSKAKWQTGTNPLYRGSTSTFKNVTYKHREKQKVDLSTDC

[4] = target: T1, ITGαvβ3 heterodimer (analyte in SPR) (UniProt P06756 31-992; P05106 27-718, limits assumed); assay: SPR (BiaCore X100), peptide immobilised on C1 chip, ITGαvβ3 as analyte, 1:1 Langmuir fit; SPR, αvβ3 as analyte
T1 construct: Soluble heterodimer used as analyte over immobilised peptide; construct not described
T1 sequence (P06756 31-992 limits assumed, chain 1 of 2): as the sequence (P06756 31-992 limits assumed) above
T1 sequence (P05106 27-718 limits assumed, chain 2 of 2): as the sequence (P05106 27-718 limits assumed) above

[5] = target: T2, ITGαvβ6 heterodimer (analyte in SPR) (UniProt P06756 31-992; P18564 22-707, limits assumed); assay: SPR (BiaCore X100), peptide immobilised on C1 chip, ITGαvβ6 as analyte, 1:1 Langmuir fit; SPR, ITGαvβ6 as analyte
T2 construct: Soluble heterodimer used as analyte over immobilised peptide; construct not described; also called heterodimeric receptor ITGαvβ6
T2 sequence (P06756 31-992 limits assumed, chain 1 of 2): as the sequence (P06756 31-992 limits assumed) above
T2 sequence (P18564 22-707 limits assumed, chain 2 of 2): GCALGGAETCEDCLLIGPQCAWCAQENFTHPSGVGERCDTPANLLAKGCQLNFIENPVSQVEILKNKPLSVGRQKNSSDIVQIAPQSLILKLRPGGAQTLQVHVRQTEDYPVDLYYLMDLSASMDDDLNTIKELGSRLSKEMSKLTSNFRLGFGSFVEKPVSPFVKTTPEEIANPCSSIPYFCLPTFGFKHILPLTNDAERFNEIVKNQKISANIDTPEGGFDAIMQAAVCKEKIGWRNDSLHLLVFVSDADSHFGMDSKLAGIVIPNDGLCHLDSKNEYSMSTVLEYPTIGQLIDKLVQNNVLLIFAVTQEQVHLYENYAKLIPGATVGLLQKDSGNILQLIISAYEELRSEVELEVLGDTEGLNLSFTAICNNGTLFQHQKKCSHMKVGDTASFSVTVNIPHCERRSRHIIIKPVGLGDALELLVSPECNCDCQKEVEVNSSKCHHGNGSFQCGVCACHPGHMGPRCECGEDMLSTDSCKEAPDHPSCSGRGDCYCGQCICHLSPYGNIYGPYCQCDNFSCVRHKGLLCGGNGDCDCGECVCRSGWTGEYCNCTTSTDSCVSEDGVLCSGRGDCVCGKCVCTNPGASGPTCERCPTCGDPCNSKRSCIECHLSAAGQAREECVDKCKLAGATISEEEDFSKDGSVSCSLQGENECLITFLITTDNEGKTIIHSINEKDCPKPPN

[6] = target: T3, integrin αvβ6 (ITGαvβ6) as expressed on human carcinoma cell lines and tumor tissue sections (human, UniProt P06756 31-1048; P18564 22-788); assay: competition of unlabeled SFLAP3 with 125I-SFLAP3 on HNO223 cells
T3 construct: whole, on cells; also called ITGAVB6; ITGαvβ6-expressing HNO97 cells
T3 sequence (P06756 31-1048, chain 1 of 2): as the sequence (P06756 31-1048, chain 1 of 2) above
T3 sequence (P18564 22-788, chain 2 of 2): as the sequence (P18564 22-788, chain 2 of 2, further chain) above

[7] = target: T3, integrin αvβ6 (ITGαvβ6) as expressed on …; assay: 125I-peptide binding to HNO97 cells, 60 min
[8] = target: T3, integrin αvβ6 (ITGαvβ6) as expressed on …; assay: 125I-peptide binding to HNO223 cells, 60 min
[9] = target: T3, integrin αvβ6 (ITGαvβ6) as expressed on …; assay: competition of unlabeled SFLAP3 with 125I-SFLAP3 on HNO399 cells
[10] = target: T3, integrin αvβ6 (ITGαvβ6) as expressed on …; assay: 125I-peptide binding to HNO210 cells, 60 min
[11] = target: T3, integrin αvβ6 (ITGαvβ6) as expressed on …; assay: unlabeled peptide competing with 125I-SFLAP3 on HNSCC cell lines (HNO97, HNO399, HNO223), mean; mean over HNSCC cell lines
[12] = target: T3, integrin αvβ6 (ITGαvβ6) as expressed on …; assay: 125I-peptide binding to HNO199 cells, 60 min
[13] = target: T1, ITGαvβ3 heterodimer (analyte in SPR); assay: SPR, αvβ3 heterodimer against ITGαvβ6 on immobilised SFLAP3
[14] = target: T3, integrin αvβ6 (ITGαvβ6) as expressed on …; assay: competition of unlabeled SFLAP3 with 125I-SFLAP3 on HNO97 cells
[15] = target: T3, integrin αvβ6 (ITGαvβ6) as expressed on …; assay: unlabeled peptide competing with 125I-SFITGv6 on HNO97 cells, 60 min; HNO97 cells, cell competition IC50
[16] = target: T3, integrin αvβ6 (ITGαvβ6) as expressed on …; assay: unlabeled peptide competing with 125I-SFITGv6 on HNSCC cell lines (HNO97, HNO399, HNO223), mean; mean over HNSCC cell lines
[17] = target: T1, ITGαvβ3 heterodimer (analyte in SPR); assay: SPR, ITGαvβ3 against ITGαvβ6 on immobilised SFITGv6
[18] = target: T1, ITGαvβ3 heterodimer (analyte in SPR); assay: SPR (BiaCore X100), peptide immobilised on C1 chip, ITGαvβ3 as analyte, 1:1 Langmuir fit; SPR, ITGαvβ3 as analyte
[19] = target: T3, integrin αvβ6 (ITGαvβ6) as expressed on …; assay: unlabeled peptide (10^-10 to 10^-4 M) competing with the 125I-labeled peptide on HNO97 cells

With `CC(C)C[C@@H]1NC(=O)[C@H](CC(=O)O)NC(=O)CNC(=O)[C@H](CCCNC(=N)N)NC(=O)CNC(=O)[C@H]([C@@H](C)O)NC(=O)[C@@H](NC(=O)[C@H](CCCNC(=N)N)NC(=O)CN)CSSC[C@@H](C(=O)N[C@@H](Cc2ccc(O)cc2)C(=O)N2CCC[C@H]2C(=O)N[C@@H](CC(=O)O)C(=O)O)NC(=O)[C@H](CC(C)C)NC(=O)[C@H](CCCNC(=N)N)NC(=O)CNC1=O` [SFLAP3, H2N-G-R-C1-T-G-R-G-D-L-G-R-L-C2-Y-P-D-COOH] (H-GRCTGRGDLGRLCYPD-OH; disulfide 3-13) the “lower affinity for ITGαvβ3 than for ITGαvβ6” value (ITGαvβ3) was 10 fold, the “maximum accumulation in the tumor lesion” value (HNO399 xenografts; 60 min post injection) was 3.6 % ID/g and the “accumulation in the tumor after decrease” value (HNO399 xenografts; 360 min after injection) was roughly 2%. For the same molecule, the “histochemical peptide staining result” value [1] was “slightly fainter staining capacity”, the “maximum accumulation in the tumor lesion” value (HNO223 xenografts; 60 min post injection, HNO233-xenografted as printed) was 3.4 % ID/g and the “accumulation in the tumor after decrease” value (HNO223 xenografts; 360 min after injection) was roughly 2%. For the same molecule, the “proteolytic stability in human serum” value [2] was “no degradation over a 24 hours; also recorded: shown for up to 24 hours”.

With A20FMDV2 (peptide) the IC50 [3] was 3.2 nM.

B1: SFLAP3 (peptide)
peptide: GRCTGRGDLGRLCYPD
modifications: disulfide 3-13 (inferred); not fully specified (C-terminus); also: 125I on the tyrosine in labelled tracer form
B1 showed a Kd [4] of 185 nM, a Kd [5] of 7.4 nM and an IC50 [6] of 2.56 nM. For the same molecule, the “percent of applied dose bound per 10^6 cells” value [7] was 24.7%, the “percent of applied dose bound per 10^6 cells” value [8] was 17.6% and the IC50 [9] was 3.25 nM. The “percent of applied dose bound per 10^6 cells” value [10] was 10.6%, the IC50 [11] was 3.5 nM and the “percent of applied dose bound per 10^6 cells” value [12] was 19.7%. For the same molecule, the “fold lower affinity than for ITGαvβ6” value [13] was 10 fold and the IC50 [14] was 4.7 nM.

B2: SFITGv6 (peptide)
peptide: GRCTFRGDLMQLCYPD
modifications: disulfide 3-13 (inferred); not fully specified (C-terminus); also: 125I on the tyrosine in labelled tracer form
notes: Synthetic SFTI-1 derivate
With B2 the “percent of applied dose bound per 10^6 cells” value [8] was 13.5%, the IC50 [15] was 16.1 nM and the IC50 [16] was 14.1 nM. The “fold lower affinity than for ITGαvβ6” value [17] was 10 fold and the Kd [18] was 185 nM.

B3: SFPF-10 (peptide)
peptide: GRCTFRGDKMQLCYPD
modifications: disulfide 3-13 (inferred); also: 125I on the tyrosine in labelled tracer form
notes: Originally selected peptide of the SFTI8Ph library
For B3, the IC50 [19] was 18 nM, the “percent of applied dose bound per 10^6 cells” value [7] was 7.2% and the “percent of applied dose bound per 10^6 cells” value [8] was 11%. For the same molecule, the “percent of applied dose bound per 10^6 cells” value [10] was 5% and the “percent of applied dose bound per 10^6 cells” value [12] was 3.1%.
